Results taken from US20190307868A1.

Legend:
Details in all cases: remark: other sources report otherwise
HLA-B08:01 (human) [1] = experiment: peptide-MHC-I complex dissociation half-life, 125I-b2m, 37 C
HLA-A02:01 (human) [2] = experiment: competition with 125I-labelled probe peptide, purified HLA
HLA-A02:01 (human) [3] = experiment: pMHC-I dissociation half-life, 125I-b2m
HLA-B08:01 (human) [4] = experiment: competitive inhibition of 125I-labeled probe peptide binding to purified HLA class I

Binder	Stability (T1/2 (h)) (HLA-B08:01 (human) [1]) [h]	IC50 (HLA-A02:01 (human) [2]) [nM]	Stability (T1/2 (h)) (HLA-A02:01 (human) [3]) [h]	IC50 (HLA-B08:01 (human) [4]) [nM]
LVVVGACGV		1210	0.6	
SLPRFILMEL [… (ALK, L1196M)]	0			
LVVVGAVGV			0.6	
LVVVGADGV		1190	0	
WLHKRGKYI [… (AKT1, E17K)]	1.3			417

The next lines start with the values.

Stability (T1/2 (h)) (HLA-B08:01 (human) [1]) [h]	IC50 (HLA-A02:01 (human) [2]) [nM]	Stability (T1/2 (h)) (HLA-A02:01 (human) [3]) [h]	IC50 (HLA-B08:01 (human) [4]) [nM]	Binder
0				SVCFFFFSV [… (CNOT1(+1))]
0				QLIMQLMPF [… (EGFR, T790M)]
0			1970	FLPSTLKSL [… (ESR1, S463P)]
